Experimental findings from the Human Domainome abundance scans (Beltran et al. 2025) are described below.

± gives the uncertainty stated by the source.

B1: Cullin-9, residues 2234 to 2275; numbered along this chain, Q8IWT3 (parent)
chain: KRCPSCQAPIEKNEGCLHMTCAKCNHGFCWRCLKSWKPNHKD

The variants in the data set derive from B1. The data set is described as follows: abundance fitness (aPCA) (normalised: wild type 0, dead -1); higher = more abundant; growth selection in yeast, the domain comes from the species named. The note with it: Homo sapiens.
Take K37W: the abundance fitness was -0.168 ± 0.098. With K37R the figure was -0.156 ± 0.078; with K37F, -0.193 ± 0.16. The same measure for K37I: -0.039 ± 0.14; for D42S: -0.387 ± 0.13. The same measure for D42T: -0.073 ± 0.14. On to D42K, for which the abundance fitness is -0.487 ± 0.37. With D42A the figure was -0.117 ± 0.12. As to A22R, the abundance fitness is -0.242 ± 0.1. For A22K, the abundance fitness was -0.333 ± 0.17. The same measure for A22E: 0.029 ± 0.11; for A22I: -0.025 ± 0.14. With H26A the figure was -0.022 ± 0.089; with H26S, 0.055 ± 0.12; with H26R, -0.213 ± 0.078.

As for H26Y, the abundance fitness was -0.1 ± 0.12.

As to H26N, the abundance fitness is -0.287 ± 0.16.

With H26L, the abundance fitness was -0.419 ± 0.094. With H26G the figure was -0.02 ± 0.075. The same measure for H26E: -0.091 ± 0.093. The same measure for K41P: 0.318 ± 0.12; for K41T: -0.277 ± 0.17.

Take K41S: the abundance fitness was -0.038 ± 0.12. With K41V the figure was 0.255 ± 0.1; with K41E, 0.281 ± 0.096. Take S35W: the abundance fitness is -0.23 ± 0.12. The same measure for S35M: 0.037 ± 0.16. With S35C the figure was -0.195 ± 0.14; with K1S, -0.756 ± 0.15; with K1I, 0.164 ± 0.34. On to K1F, for which the abundance fitness was -0.735 ± 0.39. The same measure for C32H: -1.17 ± 0.22; for C32P: -0.959 ± 0.14; for C32Q: -0.726 ± 0.12.

W36K: the abundance fitness was 0.13 ± 0.13. Regarding W36R, the abundance fitness was -0.25 ± 0.079. With W36V the figure was 0.304 ± 0.074; with R31A, -0.026 ± 0.076; with R31C, 0.055 ± 0.13. With R31F the figure was -0.258 ± 0.14; with F28T, -0.219 ± 0.1.

For the variant F28C, the abundance fitness is -0.189 ± 0.14. With F28N the figure was 0.135 ± 0.18; with F28D, 0.101 ± 0.17. With F28W the figure was -0.255 ± 0.091; with K23N, -0.184 ± 0.23. The same measure for K23I: -0.437 ± 0.14; for K23G: -0.262 ± 0.08.

In the case of K23D, the abundance fitness was -0.239 ± 0.32. With H18Y the figure was -0.503 ± 0.16; with H18L, -0.104 ± 0.09.

For H18A, the abundance fitness is -0.142 ± 0.083. With H18D the figure was -0.274 ± 0.16. The same measure for H18R: -0.016 ± 0.073; for H18W: -0.329 ± 0.09; for E14C: -0.001 ± 0.13.

For E14D, the abundance fitness is -0.084 ± 0.16. With E14V the figure was -0.397 ± 0.092; with E14K, -0.473 ± 0.17; with E14S, -0.047 ± 0.1. The same measure for H40A: 0.05 ± 0.077; for H40C: -0.24 ± 0.14; for W30D: 0.019 ± 0.25. With W30S the figure was -0.101 ± 0.11; with W30F, -0.162 ± 0.14. For the variant W30P, the abundance fitness came to 0.134 ± 0.11.

Take W30V: the abundance fitness was -0.056 ± 0.085. The same measure for C24T: -0.735 ± 0.19. Regarding C24K, the abundance fitness is -0.379 ± 0.13. With C24P the figure was -0.249 ± 0.1; with C21Y, -0.465 ± 0.2; with C21Q, -0.537 ± 0.12.

On to C21D, for which the abundance fitness was -0.239 ± 0.13. Consider G27D, for which the abundance fitness is 0.193 ± 0.14.

Regarding G27C, the abundance fitness turned out to be 0.036 ± 0.12. With G27E, the abundance fitness was 0.708 ± 0.091. With G27M the figure was -0.264 ± 0.18; with G27A, 0.194 ± 0.077. The same measure for G27Q: 0.439 ± 0.13; for C16Y: -0.032 ± 0.15. With C16V the figure was 0.449 ± 0.085. In the case of C16M, the abundance fitness turned out to be 0.202 ± 0.11. The same measure for G15E: 0.045 ± 0.097. With G15P the figure was -0.259 ± 0.12; with G15R, -0.096 ± 0.092.

Consider G15H, for which the abundance fitness was -0.492 ± 0.17. With N13G the figure was -0.059 ± 0.07; with N13R, -0.034 ± 0.075.

Regarding P9R, the abundance fitness is -0.048 ± 0.087. The same measure for P9W: 0.335 ± 0.14.

As to P9Y, the abundance fitness was -0.265 ± 0.18. The same measure for P9M: 0.056 ± 0.1. The same measure for P9H: -0.291 ± 0.16. The same measure for P9I: -0.53 ± 0.41; for T20G: -0.288 ± 0.083; for T20P: -0.103 ± 0.1. Take T20Y: the abundance fitness came out at 0.316 ± 0.2. In the case of P4A, the abundance fitness stood at 0.098 ± 0.078. The same measure for P4W: -0.147 ± 0.092; for P4E: -1.27 ± 0.14.

Take P4N: the abundance fitness was -1.15 ± 0.28. The same measure for K34S: -0.18 ± 0.094; for K34G: -0.194 ± 0.073. With K34I the figure was -0.539 ± 0.14; with C3G, -0.485 ± 0.08. With C3F the figure was -0.416 ± 0.2; with C3D, -0.018 ± 0.13.

For E11W, the abundance fitness is -0.069 ± 0.14. With E11V the figure was -0.408 ± 0.1. As for Q7P, the abundance fitness was -0.18 ± 0.12. The same measure for Q7I: -0.346 ± 0.34; for Q7A: -0.064 ± 0.15; for C6N: 0.056 ± 0.31.

For the variant C6V, the abundance fitness is -0.383 ± 0.087. With C6P, the abundance fitness is -0.639 ± 0.15. As for C6I, the abundance fitness was -0.419 ± 0.18. The same measure for C6W: -0.615 ± 0.15. Turning to C6Q, the abundance fitness was -0.587 ± 0.12. The same measure for C6R: -0.612 ± 0.092. The same measure for C29K: -0.632 ± 0.17; for C29H: -0.532 ± 0.16; for C29G: -0.737 ± 0.093. The same measure for C29M: -0.969 ± 0.22; for C29S: -0.749 ± 0.12; for R2P: -0.209 ± 0.13. Regarding R2I, the abundance fitness was 1.09 ± 0.27. With R2Y the figure was 0.242 ± 0.13; with R2S, 0.077 ± 0.092.

As to R2K, the abundance fitness was found to be 0.123 ± 0.1.

Turning to L17Y, the abundance fitness worked out at 0.383 ± 0.29. With L17C the figure was -0.209 ± 0.25.

As for L17T, the abundance fitness was -0.236 ± 0.12. The same measure for L17A: -0.053 ± 0.079; for K12Y: -0.152 ± 0.17; for K12A: 0.126 ± 0.081. With K12P the figure was 0.057 ± 0.081; with N39D, 0.244 ± 0.11.

Regarding N39R, the abundance fitness is -0.071 ± 0.078. The same measure for N39F: 0.269 ± 0.26; for N39M: -0.14 ± 0.13; for L33N: -0.432 ± 0.11. The same measure for L33V: -0.414 ± 0.086; for P38H: -0.867 ± 0.34. With P38K the figure was -0.379 ± 0.32. For the variant P38R, the abundance fitness was -0.383 ± 0.077. With P38A the figure was -0.114 ± 0.092; with N25G, 0.208 ± 0.077; with N25P, -0.382 ± 0.12. As for N25R, the abundance fitness is -0.25 ± 0.081. The same measure for N25Q: 0.082 ± 0.14; for A8P: -0.555 ± 0.28. The same measure for A8I: -0.341 ± 0.27; for A8M: -0.155 ± 0.1. As to A8R, the abundance fitness is -0.153 ± 0.072. With A8L the figure was -0.256 ± 0.083; with A8F, -0.01 ± 0.13; with M19W, -0.223 ± 0.1. With M19N the figure was -0.161 ± 0.18. With M19T the figure was 0.182 ± 0.11; with S5T, 0.224 ± 0.087. With S5D, the abundance fitness is -0.147 ± 0.12. The same measure for S5G: 0.56 ± 0.07; for S5Q: 0.31 ± 0.095; for S5K: 0.489 ± 0.11. Take S5H: the abundance fitness was -0.336 ± 0.32. The same measure for S5L: -0.121 ± 0.081; for S5Y: -0.291 ± 0.17.
